Legend:
soluble uPAR (suPAR) [1] = target: soluble uPAR (suPAR) (UniProt Q03405); assay: SPR (Biacore 2000), antibody captured on protein A/G surface, suPAR injected, 25 C, 1:1 Langmuir fit
soluble uPAR (suPAR) [2] = target: soluble uPAR (suPAR) (UniProt Q03405); assay: SPR (Biacore 2000), antibody captured on rabbit anti-mouse surface, suPAR injected, 25 C, 1:1 Langmuir fit

A Kd (soluble uPAR (suPAR) [1]) of 0.39 nM was found for “Human Engineered ATN-658 variant HE ATN-4, renamed humanized mAb MNPR-101 (antibody)” in this work.

A Kd (soluble uPAR (suPAR) [2]) of 0.38 nM was found for mouse monoclonal antibody ATN-658 in this work.

From patent US20220378956A1
